Consider 1 molecule from patent CN117858904A (dated 2024).

For experiment [1], the target named is 人CD47抗原 CD47-FcLama (human CD47 antigen) (human, UniProt Q08722 19-139). The experiment is described as follows: BLI (Octet Red384), CD47-FcLama covalently on AR2G sensor, antibody as analyte (68.9, 34.4, 17.2 nM), 1:1 global fit, mean of three measurements. On the technique in general: In BLI a coated tip is dipped into the sample, and binding shifts an interference pattern.

Experiment [2] deals with T1, 人PD-L1抗原 (human PD-L1 antigen) (human, UniProt Q9NZQ7 19-238, limits assumed).
T1 construct: also called 专有PD-L1抗原
T1 sequence (Q9NZQ7 19-238 limits assumed): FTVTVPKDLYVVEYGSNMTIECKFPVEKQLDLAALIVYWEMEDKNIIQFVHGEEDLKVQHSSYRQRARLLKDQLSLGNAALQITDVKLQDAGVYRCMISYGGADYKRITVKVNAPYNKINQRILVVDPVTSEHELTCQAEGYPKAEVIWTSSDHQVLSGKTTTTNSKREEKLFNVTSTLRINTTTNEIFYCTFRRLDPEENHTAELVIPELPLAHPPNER
The experiment is described as follows: BLI (Octet Red384), as in Example 3, human PD-L1 antigen on AR2G sensor, antibody as analyte, mean of three measurements.

Experiment [3] deals with T2, 食蟹猴CD47抗原 cynoCD47(ARCO), Cynomolgus/Rhesus CD47 protein, Fc Tag, cat. CD7-C5252 (cynomolgus monkey / rhesus monkey).
T2 construct: Commercial protein
Description: BLI (Octet Red384), as in Example 3, cynoCD47-Fc on AR2G sensor, antibody as analyte, mean of three measurements.

Chain of 人CD47抗原 CD47-FcLama (human CD47 antigen) (Q08722 19-139): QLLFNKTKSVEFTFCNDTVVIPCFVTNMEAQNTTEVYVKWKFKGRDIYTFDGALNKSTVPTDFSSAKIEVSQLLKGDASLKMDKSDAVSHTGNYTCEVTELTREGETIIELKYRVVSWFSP

B1: 双特异性抗体09-001 (bispecific antibody 09-001, binds CD47 and PD-L1, common light chain) (bispecific antibody, human IgG1, lambda, L234A L235A)
heavy 1: not shown
light: QTVVTQEPSLSVSPGGTVTLTCGLSSGTVTAINYPGWYQQTPGQAPRTLIYNTNTRHSGVPDRFSGSISGNKAALTITGAQAEDEADYYCALYMGNGGHMFGGGTKLTVLGQPKAAPSVTLFPPSSEELQANKATLVCLISDFYPGAVTVAWKADSSPVKAGVETTTPSKQSNNKYAASSYLSLTPEQWKSHRSYSCQVTHEGSTVEKTVAPTECS
heavy 2: EVQLVESGGGVVRPGGSLRLSCAASGFTFDDYAMSWVRQAPGKGLEWVSDISWSGSNTNYADSVKGRFTISRDNAKNSLYLQMNSLRAEDTALYHCARAPLLLAMTFGVGSWGQGTLVTVSSASTKGPSVFPLAPSSKSTSGGTAALGCLVKDYFPEPVTVSWNSGALTSGVHTFPAVLQSSGLYSLSSVVTVPSSSLGTQTYICNVNHKPSNTKVDKKVEPKSCDGPGGTCPPCPAPEAAGGPSVFLFPPKPKDTLMISRTPEVTCVVVDVSHEDPEVKFNWYVDGVEVHNAKTKPREEQYNSTYRVVSVLTVLHQDWLNGKEYKCKVSNKALPAPIEKTISKAKGQPREPQVCTLPPSREEMTKNQVSLSCAVKGFYPSDIAVEWESNGQPENNYKTTPPVLDSDGSFFLVSKLTVDKSRWQQGNVFSCSVMHEALHNHYTQKSLSLSPGK
One may read the Kd as the equilibrium constant for the complex coming apart. Regarding B1, the Kd in experiment [1] amounted to 82.5 nM; in experiment [2], 2.54 nM; in experiment [3] it was 57 nM.
